Experimental data as given in paper PMC6048123.

Experiments:
[1] = biological target: FimH (lectin and pilin subdomains), β-strand-complemented and oxidized, in the array polyprotein (I9 (E. coli) (UniProt P08191)); assay: single-molecule force spectroscopy (AFM, force-ramp)
[2] = biological target: FimF domain, β-strand-complemented and oxidized, in the array polyprotein (I91)2-FimF-FimG-FimH-(I91)2 (E. coli) (UniProt P08189); assay: as above
[3] = biological target: FimF domain of the self-complemented construct FimF-DS_(FimA), oxidized (FimFS-S), in the polyprotein (I91)2-FimF-(I91)2 (E. coli) (UniProt P08189); assay: single-molecule force spectroscopy (AFM, force-extension)
[4] = biological target: FimH (lectin subdomain FimHL and pilin subdomain FimHP) of the self-complemented construct FimH-DS_( (E. coli) (UniProt P08191)); assay: as above
[5] = biological target: FimA domain of the self-complemented construct FimA-DS_(FimA), oxidized (FimAS-S), in the polyprotein (I91)2-FimA-(I91)2 (E. coli) (UniProt P04128); assay: as above
[6] = biological target: FimG domain of the self-complemented construct FimG-DS_(FimF), oxidized (FimGS-S), in the polyprotein (I91)2-FimG-(I91)2 (E. coli); assay: as above
[7] = biological target: FimG domain, β-strand-complemented and oxidized, in the array polyprotein (I91)2-FimF-FimG-FimH-(I91)2 (E. coli); assay: single-molecule force spectroscopy (AFM, force-ramp)
[8] = biological target: FimG domain of the self-complemented construct FimG-DS_(FimF), reduced (FimG_(SH-SH)), in the polyprotein (I91)2-FimG-(I91)2 (E. coli)

Sequence of FimG domain, β-strand-complemented and oxidized, in the array polyprotein (I91)2-FimF-FimG-FimH-(I91)2 (E. coli) (P08190 24-167): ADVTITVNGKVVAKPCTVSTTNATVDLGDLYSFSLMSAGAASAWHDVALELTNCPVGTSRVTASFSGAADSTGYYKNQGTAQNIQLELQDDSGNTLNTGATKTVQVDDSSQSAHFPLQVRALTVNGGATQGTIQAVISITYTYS
Sequence of FimG domain of the self-complemented construct FimG-DS_(FimF), oxidized (FimGS-S), in the polyprotein (I91)2-FimG-(I91)2 (E. coli) (P08190 24-167): as above
Sequence of UniProt P04128 (P04128 24-182): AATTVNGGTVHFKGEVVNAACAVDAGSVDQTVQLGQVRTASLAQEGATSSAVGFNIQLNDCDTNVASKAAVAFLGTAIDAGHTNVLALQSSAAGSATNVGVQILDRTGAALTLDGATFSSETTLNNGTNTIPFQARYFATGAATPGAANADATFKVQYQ

## donor β-strand of FimG complementing FimH in the array polyprotein (I91)2-FimF-FimG-FimH-(I91)2 (from UniProt P08190) (peptide)
[1]
  unfolding force of FimHP in force-ramp (rupture of the β-strand interaction): 238 pN

## donor β-strand of FimA complementing FimF in the array polyprotein (I91)2-FimF-FimG-FimH-(I91)2 (peptide)
[2]
  unfolding force in force-ramp (rupture of the β-strand interaction): 281 pN

## donor β-strand of FimA (DS_(FimA)) linked by DNKQ to the C-terminus of FimF in (I91)2-FimF-(I91)2 (peptide)
[3]
  unfolding force (rupture of the β-strand interaction): 418 pN

## donor β-strand of FimG (DS_(FimG)) linked by DNKQ to the C-terminus of FimH in (I91)2-FimH-(I91)2 (from UniProt P08190) (peptide)
[4]
  rupture force of FimHP (rupture of the β-strand interaction): 362 pN

## donor β-strand of FimA (DS_(FimA)) linked by DNKQ to the C-terminus of FimA in (I91)2-FimA-(I91)2 (from UniProt P04128) (peptide)
[5]
  unfolding force (rupture of the β-strand interaction): 527 pN

B1: donor β-strand of FimF (DS_(FimF)) linked by DNKQ to the C-terminus of FimG in (I91)2-FimG-(I91)2 (peptide)
chain: DNKQADSTITIRGYVRDNGCSVAAESTNFTVDLMENAAKQFNNIGATTPVVPFRILLSPCGNAVSAVKVGFTGVADSHNANLLALENTVSAASGLGIQLLNEQQNQIPLNAPSSALSWTTLTPGKPNTLNFYARLMATQVPVTAGHINATATFTLEYQ
[6]
  unfolding force (rupture of the β-strand interaction): 431 pN

B2: donor β-strand of FimF complementing FimG in the array polyprotein (I91)2-FimF-FimG-FimH-(I91)2 (peptide)
chain: DNKQADSTITIRGYVRDNGCSVAAESTNFTVDLMENAAKQFNNIGATTPVVPFRILLSPCGNAVSAVKVGFTGVADSHNANLLALENTVSAASGLGIQLLNEQQNQIPLNAPSSALSWTTLTPGKPNTLNFYARLMATQVPVTAGHINATATFTLEYQ
[7]
  unfolding force in force-ramp (rupture of the β-strand interaction): 261 pN

B3: DsbA oxidoreductase (enzyme)
chain: AQYEDGKQYTTLEKPVAGAPQVLEFFSFFCPHCYQFEEVLHISDNVKKKLPEGVKMTKYHVNFMGGDLGKDLTQAWAVAMALGVEDKVTVPLFEGVQKTQTIRSASDIRDVFINAGIKGEEYDAAWNSFVVKSLVAQQEKAAADVQLRGVPAMFVNGKYQLNPQGMDTSNMDVFVQQYADTVKYLSEKK
[8]
  refolding probability of FimG in force-clamp AFM after 45 s at 0 pN, with DsbA (100 μM) against reduced FimG alone (around 20%): 70%
